Patent US20150093758

What was measured:
[1] = system: PSA capture agent biligand biotin-PEG5-cyclic(CVFAHNYDYLVC)-Tz5-Gllffk
[2] = system: PSA anchor ligand biotin-PEG5-cyclic(CVFAHNYDYLVC)

Q: “human prostate specific antigen (free PSA, Scripps Laboratories #P0725)” was tested. Which enzyme activity of PSA against the chromogenic substrate Suc-Arg-Pro-Tyr-pNA (absorbance at 405 nm) [1] did it give?
A: The enzyme activity of PSA against the chromogenic substrate Suc-Arg-Pro-Tyr-pNA (absorbance at 405 nm) was 3 fold.

Q: What about the enzyme activity of PSA against the chromogenic substrate Suc-Arg-Pro-Tyr-pNA (absorbance at 405 nm) [2] of the same substance?
A: Its enzyme activity of PSA against the chromogenic substrate Suc-Arg-Pro-Tyr-pNA (absorbance at 405 nm) is 3 fold.
